Drawing on paper doi:10.64898/2025.12.08.692925, this text covers percent of fluorescent cells for 1 molecule.

What all share (assay): split reporter
Assay [1] concerns the target Tim23 mutant M1 fused to short YFP (S. cerevisiae) (UniProt P32897).
Assay [2] has as its target Tim23 mutant M2 fused to short YFP (S. cerevisiae) (UniProt P32897).
The target of assay [3] is Tim23 mutant M4 fused to short YFP (S. cerevisiae) (UniProt P32897).

B1: Sfc1 fused to long YFP (natural protein)
chain: MSQKKKASHPAINLMAGGTAGLFEALCCHPLDTIKVRMQIYRRVAGIEHVKPPGFIKTGRTIYQKEGFLALYKGLGAVVIGIIPKMAIRFSSYEFYRTLLVNKESGIVSTGNTFVAGVGAGITEAVLVVNPMEVVKIRLQAQHLTPSEPNAGPKYNNAIHAAYTIVKEEGVSALYRGVSLTAARQATNQGANFTVYSKLKEFLQNYHQMDVLPSWETSCIGLISGAIGPFSNAPLDTIKTRLQKDKSISLEKQSGMKKIITIGAQLLKEEGFRALYKGITPRVMRVAPGQAVTFTVYEYVREHLENLGIFKKNDTPKPKPLK
Take B1: the values for the percent of fluorescent cells in assay [1], in assay [2] and in assay [3] were 4%, 7% and 9%, respectively.
